Results on 2 substances are retold here after patent US20100303790A1, “USE OF BILIVERDIN REDUCTASE (BVR) AND BVR PEPTIDE FRAGMENTS TO TREAT CORONARY DISORDERS” (UNIVERSITY OF ROCHESTER, priority 2009, published 2010).

Test [1] addresses T1, BVR (Homo sapiens, UniProt P53004, A154S/E160D/G155D).
T1 sequence (P53004 3-296 A154S/G155D/E160D): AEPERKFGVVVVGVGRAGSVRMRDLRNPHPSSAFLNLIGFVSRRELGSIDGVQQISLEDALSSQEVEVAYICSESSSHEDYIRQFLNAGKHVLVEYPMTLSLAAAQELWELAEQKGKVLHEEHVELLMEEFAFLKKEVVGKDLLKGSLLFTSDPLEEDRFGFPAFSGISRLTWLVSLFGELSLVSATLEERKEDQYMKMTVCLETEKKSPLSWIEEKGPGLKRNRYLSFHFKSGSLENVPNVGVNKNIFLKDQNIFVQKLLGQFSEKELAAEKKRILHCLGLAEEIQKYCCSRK
Particulars: Lerner-Marmarosh et al. 2007; cited from earlier work.

For test [2], the target named is T2, BVR (Rattus norvegicus, UniProt P46844).
T2 construct: Cardiomyocytes and heart tissue samples were lysed in buffer containing 100 mM sodium phosphate pH 7.4; from tissue; host or cells: isolated Langendorff-perfused rat heart, lysate
T2 sequence (P46844 3-295): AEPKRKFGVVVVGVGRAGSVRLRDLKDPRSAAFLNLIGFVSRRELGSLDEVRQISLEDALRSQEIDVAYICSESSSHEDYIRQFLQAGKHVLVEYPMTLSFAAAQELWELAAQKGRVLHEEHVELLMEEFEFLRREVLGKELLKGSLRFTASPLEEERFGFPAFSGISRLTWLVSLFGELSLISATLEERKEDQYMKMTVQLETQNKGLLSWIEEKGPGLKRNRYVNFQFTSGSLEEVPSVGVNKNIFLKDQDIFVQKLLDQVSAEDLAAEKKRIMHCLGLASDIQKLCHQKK
In words: Langendorff perfused heart: BVR activity (biliverdin to bilirubin, pH 6.7). Type of test: in vivo. The text has this:
In Vivo Experimental Langendorff Model: Male Sprague-Dawley rats weighing 250-300 g (Charles River, Boston, Mass.) were used in this study; the protocol is based on that described by Tompkins et al., “Mitochondrial Dysfunction in Cardiac Ischemia-Reperfusion Injury: ROS From Complex I, Without Inhibition,” Biochim Biophys Acta 1762:223-231 (2006), which is hereby incorporated by reference in its entirety, with minor modification. The rats were fed a standard rat chow and had water ad libitum. All experiments were approved by the University of Rochester Institutional Animal Care and Use Committee. Rats were given two subcutaneous injections of isoproterenol (ISO) (0.01 mg/kg), 6 hours apart, then anesthetized with freshly prepared Avertin (2,2,2-tribromoethanol, […] injected intraperitoneally), and treated with heparin (5000 U/kg), i.p., to protect the heart against microthrombi. The aorta was cannulated in situ with a 22-gauge needle filled with warm Krebs-Henseleit (KH) buffer. The heart was rapidly transferred (<10 s.) to a perfusion apparatus, and retrograde (Langendorff) perfusion begun with 37° C. […] Hemodynamics and heart rate were recorded by inserting a water-filled balloon connected to a transducer (Radnoti LLC, model no. 159904B) into the left ventricle. […]
Measurement of BVR Activity: Cardiomyocytes and heart tissue samples were lysed in buffer containing 100 mM sodium phosphate pH 7.4, 1% Nonidet-P-40, 10% glycerol, 0.2 mM dithiothoeitol, 10 mM NaF, protease inhibitor mixture (10 μg/ml aprotinin, 10 μg/ml leupeptin, 10 μg/ml pepstatin, and 0.1 mM phenylmethylsulfonyl fluoride). BVR activity was measured at pH 6.7 as described previously (Huang et al., “Detection of 10 Variants of Biliverdin Reductase in Rat Liver by Two-Dimensional Gel Electrophoresis,”J Biol Chem 264:7844-7849 (1989), which is hereby incorporated by reference in its entirety). The rate of conversion of biliverdin to bilirubin was determined as the increase in absorbance at 450 nm at 25° C. Specific activity is expressed as nanomoles of bilirubin/min/mg of protein. […]

With “KKRILHC (biliverdin reductase peptide) [KKRILHC^281]”, the “effect on BVR activity” value in the test with BVR [1] is on record as “potent inhibitor”. Besides, in the test with BVR [2] (peptide 25 μM, whether ISO was present or not), the BVR activity entry is on record as “blocked the activity of BVR”.
On to “KYCCSRK (biliverdin reductase peptide) [KYCCSRK^296]”, for which the “effect on BVR activity” value with BVR [1] is “activator”. Moreover, the BVR activity entry in the test with BVR [2] (peptide 25 μM alone) is recorded as “increased BVR activity”. Also, in the test with BVR [2] (peptide 25 μM and 0.1 μM ISO), the BVR reductase activity entry is “significant activation”.
